Measurements published in publication PMC6502667 (Journal of structural biology, 2019).
Like-named read-outs stand apart in the source and are kept apart here.

Experiments:
[1] = molecular target: PAM_(NS455), PAM of GAS isolate NS455 (emm52), residues 42-401 (Streptococcus pyogenes (GAS) isolate NS455 (emm52)); assay: AUC
[2] = molecular target: PAM_(NS455), PAM of GAS isolate NS455 (emm52), residues 42-401 (Streptococcus pyogenes (GAS) isolate NS455 (emm52)); assay: AUC; remark: listed apart in the source
[3] = molecular target: human plasminogen (human) (UniProt P00747); assay: SPR
[4] = molecular target: PAM_(SS1572), PAM of GAS isolate SS1572 (emm223), residues 42-399 (Streptococcus pyogenes (GAS) isolate SS1572 (emm223)); assay: AUC
[5] = molecular target: PAM_(SS1572), PAM of GAS isolate SS1572 (emm223), residues 42-399 (Streptococcus pyogenes (GAS) isolate SS1572 (emm223)); assay: AUC; remark: listed apart in the source
[6] = molecular target: PAM_(SS1574), PAM of GAS isolate SS1574 (emm224), residues 42-360 (Streptococcus pyogenes (GAS) isolate SS1574 (emm224)) (UniProt P49054); assay: AUC
[7] = molecular target: PAM_(SS1574), PAM of GAS isolate SS1574 (emm224), residues 42-360 (Streptococcus pyogenes (GAS) isolate SS1574 (emm224)) (UniProt P49054); assay: AUC; remark: listed apart in the source
[8] = molecular target: human plasminogen (human) (UniProt P00747); assay: SPR; remark: listed apart in the source
[9] = molecular target: human plasminogen (human) (UniProt P00747); assay: SPR; remark: listed apart in the source
[10] = molecular target: human plasminogen (human) (UniProt P00747); assay: SPR; remark: listed apart in the source
[11] = molecular target: human plasminogen (human) (UniProt P00747); assay: SPR; remark: listed apart in the source
[12] = molecular target: PAM_(NS223), PAM of GAS isolate NS223 (emm91), residues 42-399 (Streptococcus pyogenes (GAS) isolate NS223 (emm91)); assay: AUC
[13] = molecular target: PAM_(NS223), PAM of GAS isolate NS223 (emm91), residues 42-399 (Streptococcus pyogenes (GAS) isolate NS223 (emm91)); assay: AUC; remark: listed apart in the source
[14] = molecular target: PAM_(NS88.2), PAM of GAS isolate NS88.2 (emm98.1), residues 42-385 (Streptococcus pyogenes (GAS) isolate NS88.2 (emm98.1)) (UniProt P49054); assay: AUC
[15] = molecular target: PAM_(NS88.2), PAM of GAS isolate NS88.2 (emm98.1), residues 42-385 (Streptococcus pyogenes (GAS) isolate NS88.2 (emm98.1)) (UniProt P49054); assay: AUC; remark: listed apart in the source
[16] = molecular target: PAM_(SS1448), PAM of GAS isolate SS1448 (emm86.2), residues 42-375 (Streptococcus pyogenes (GAS) isolate SS1448 (emm86.2)) (UniProt P49054); assay: AUC
[17] = molecular target: PAM_(SS1448), PAM of GAS isolate SS1448 (emm86.2), residues 42-375 (Streptococcus pyogenes (GAS) isolate SS1448 (emm86.2)) (UniProt P49054); assay: AUC; remark: listed apart in the source
human plasminogen [18] = molecular target: T1, human plasminogen (human, UniProt P00747 20-810); assay: SPR
human plasminogen [19] = molecular target: T1, human plasminogen; assay: SPR; remark: listed apart in the source
human plasminogen [20] = molecular target: T1, human plasminogen; assay: SPR; remark: listed apart in the source
human plasminogen [21] = molecular target: T1, human plasminogen; assay: SPR; remark: listed apart in the source
human plasminogen [22] = molecular target: T1, human plasminogen; assay: SPR; remark: listed apart in the source

T1 sequence (P00747 20-810): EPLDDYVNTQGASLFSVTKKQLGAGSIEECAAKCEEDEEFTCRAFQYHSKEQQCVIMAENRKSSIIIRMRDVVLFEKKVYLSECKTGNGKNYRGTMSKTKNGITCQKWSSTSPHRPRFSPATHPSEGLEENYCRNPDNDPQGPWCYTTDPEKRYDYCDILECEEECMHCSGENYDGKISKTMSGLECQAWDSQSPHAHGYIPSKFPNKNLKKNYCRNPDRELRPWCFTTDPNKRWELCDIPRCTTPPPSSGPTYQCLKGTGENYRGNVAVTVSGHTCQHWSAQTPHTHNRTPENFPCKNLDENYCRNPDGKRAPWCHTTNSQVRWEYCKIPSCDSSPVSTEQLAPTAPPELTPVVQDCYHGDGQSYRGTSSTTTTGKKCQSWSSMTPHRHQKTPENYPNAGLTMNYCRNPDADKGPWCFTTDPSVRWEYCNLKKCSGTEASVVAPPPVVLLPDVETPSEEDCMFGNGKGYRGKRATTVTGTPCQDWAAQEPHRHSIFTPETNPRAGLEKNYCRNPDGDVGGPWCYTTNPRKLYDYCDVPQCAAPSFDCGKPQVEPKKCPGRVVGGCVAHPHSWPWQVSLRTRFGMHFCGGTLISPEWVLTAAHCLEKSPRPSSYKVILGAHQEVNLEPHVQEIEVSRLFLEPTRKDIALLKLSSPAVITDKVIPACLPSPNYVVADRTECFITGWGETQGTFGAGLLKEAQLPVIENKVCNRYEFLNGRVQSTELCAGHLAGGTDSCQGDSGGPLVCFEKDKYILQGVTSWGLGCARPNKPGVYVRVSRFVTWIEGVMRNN
Chain of human plasminogen (human) (P00747 20-810): as above

Work on “PAM_(NS455), PAM of GAS isolate NS455 (emm52), residues 42-401 (natural protein)” yielded a % dimer [1] of 20.4%, a % dimer [2] of 86.8% and a Kd [3] of 6 nM. The koff [3] was 0.0014 s⁻¹ and the kon [3] was 340000 M⁻¹ s⁻¹.

For “PAM_(SS1572), PAM of GAS isolate SS1572 (emm223), residues 42-399 (natural protein)”, the % dimer [4] was 75.3%, the % dimer [5] was 95% and the Kd [3] was 40 nM. It also gave a koff [3] of 0.0055 s⁻¹ and a kon [3] of 170000 M⁻¹ s⁻¹.

Work on “PAM_(SS1574), PAM of GAS isolate SS1574 (emm224), residues 42-360 (from UniProt P49054 42-360) (natural protein)” yielded a % dimer [6] of 33.5%, a % dimer [7] of 100% and a Kd [3] of 14 nM. The koff [3] was 0.0075 s⁻¹ and the kon [3] was 562000 M⁻¹ s⁻¹.

Work on “PAM_(AP53), plasminogen-binding group A streptococcal M-protein of GAS isolate AP53 (emm53), residues 42-392 (natural protein)” yielded a Kd [3] of 21 nM, a koff [3] of 0.0043 s⁻¹ and a kon [3] of 210000 M⁻¹ s⁻¹.

With “AGL55_(NS88.2), peptide of PAM_(NS88.2) residues 95-149 (from UniProt P49054 95-149)” the Kd [8] was 7100 nM, the Kd [9] was 830 nM and the Kd [10] was 630 nM. For the same molecule, the Kd [11] was 350 nM and the Kd [3] was 160 nM.

Work on “PAM_(NS223), PAM of GAS isolate NS223 (emm91), residues 42-399 (natural protein)” yielded a % dimer [12] of 33.7%, a % dimer [13] of 94.5% and a koff [3] of 0.0056 s⁻¹.

For “KTI55_(SS1448), peptide of PAM_(SS1448) residues 85-139 (from UniProt P49054 85-139)”, the Kd [8] was 27000 nM, the Kd [9] was 1500 nM and the Kd [10] was 2100 nM. It also gave a Kd [11] of 540 nM and a Kd [3] of 360 nM.

“PAM_(NS88.2), PAM of GAS isolate NS88.2 (emm98.1), residues 42-385 (from UniProt P49054 42-385) (natural protein)” was tested, and the % dimer [14] was 55.5%, the % dimer [15] was 91.4% and the Kd [3] was 5700 nM.

With “PAM_(SS1448), PAM of GAS isolate SS1448 (emm86.2), residues 42-375 (from UniProt P49054 42-375) (natural protein)” the % dimer [16] was 56.4%, the % dimer [17] was 86.7% and the Kd [3] was 7000 nM.

B1: PAM_(AP53_medium), truncated PAM_(AP53), residues 42-207 (HVR-a1a2-B-c1) (domain or fragment)
chain: NRADDARNEVLRGNLVRAELWYRQIQENDQLKLENKGLKTDLREKEEELQGLKDDVEKLTADAELQRLKNERHEEAELERLKSERHDHDKKEAERKALEDKLADKQEHLNGALRYINEKEAEAKEKEAEQKKLKEEKQISDASRQGLRRDLDASREAKKQVEKDLA
modifications: Paper number minus 12 gives the entry number. His6 left out. About 11% dimer at 25 C
With B1 the Kd (human plasminogen [18]) was 2.4 nM, the koff (human plasminogen [18]) was 0.00054 s⁻¹ and the kon (human plasminogen [18]) was 230000 M⁻¹ s⁻¹. For the same molecule, the Kd (human plasminogen [19]) was 16 nM, the koff (human plasminogen [19]) was 0.0103 s⁻¹ and the kon (human plasminogen [19]) was 650000 M⁻¹ s⁻¹.

B2: VEK75_(AP53), peptide of PAM_(AP53) residues 97-171 (peptide)
chain: VEKLTADAELQRLKNERHEEAELERLKSERHDHDKKEAERKALEDKLADKQEHLNGALRYINEKEAEAKEKEAEQ
modifications: Paper number minus 12 gives the entry number. N-terminal GS left by thrombin cleavage is omitted
B2 gave a Kd (human plasminogen [20]) of 15 nM, a Kd (human plasminogen [21]) of 0.7 nM and a Kd (human plasminogen [22]) of 45 nM.

B3: PAM_(AP53_long), truncated PAM_(AP53), residues 42-338 (HVR-a1a2-B-c1c2c3-D) (domain or fragment)
chain: NRADDARNEVLRGNLVRAELWYRQIQENDQLKLENKGLKTDLREKEEELQGLKDDVEKLTADAELQRLKNERHEEAELERLKSERHDHDKKEAERKALEDKLADKQEHLNGALRYINEKEAEAKEKEAEQKKLKEEKQISDASRQGLRRDLDASREAKKQVEKDLANLTAELDKVKEEKQISDASRQGLRRDLDASREAKKQVEKGLANLTAELDKVKEEKQISDASRQGLRRDLDASREAKKQVEKALEEANSKLAALEKLNKELEESKKLTEKEKAELQAKLEAEAKALKEQLAK
modifications: Paper number minus 12 gives the entry number. His6 left out. Coiled-coil dimer (87% at 25 C)
Work on B3 yielded a Kd (human plasminogen [18]) of 2 nM, a koff (human plasminogen [18]) of 0.00013 s⁻¹ and a kon (human plasminogen [18]) of 90000 M⁻¹ s⁻¹. The Kd (human plasminogen [19]) was 37 nM, the koff (human plasminogen [19]) was 0.0043 s⁻¹ and the kon (human plasminogen [19]) was 120000 M⁻¹ s⁻¹.
